Measured values as given in patent US7795390B2, “Biological substance nesfatin and its related substances and uses thereof” (Teijin Pharma Limited, priority 2005, dated 2010).

What was measured:
C57BL/6J mice = test: Intraperitoneal administration of nesfatin-1 to c57BL/6J mice, food intake and blood biochemical parameters; format: in vivo; settings: recombinant mouse nesfatin-1 10 nmol ip; 0-3 hours; vs saline
Protocol: As experimental animals, 7 week-old male c57BL/6J mice were purchased from Nippon Clea, and were housed in a cycle of 12 hours of the light period from 6 a.m. to 6 p.m. and […] of the dark period from 6 p.m. to 6 a.m. the next morning and were allowed free access to a pellet food (Nippon Clea, CE-2), and kept at 22° C.
Into the abdominal cavity of the c57BL/6J mice, 10 nmol of recombinant mouse nesfatin-1 prepared in Working Example 16 dissolved in 100 μl of physiological saline was administered, and as the control sample physiological saline alone was used. Using a tuberculin syringe equipped with a 26G needle, 100 μl each of the sample was administered once into the abdominal cavity of each mouse (5 animals per group), and the time of administration was immediately before the start (6 p.m.) of the dark period.
Each mouse that received administration was placed in an individual cage, and during 0-3 hours after the administration the weight decreased of the pellet food was measured to determine the amount of food intake. Also, 3 hours after the administration each mouse was sacrificed by decapitation to collect whole blood, and serum was collected therefrom. For the serum, the contents of glucose, total cholesterol and triglyceride were measured using commercial reagents for determination (KYOWA MEDEX, Determiner L GLUII, Determiner L TCII, Determiner L TGII).

Zucker +/+ (Lean) rats = test: nesfatin-1 administration into the third ventricle of Zucker +/+ (Lean) rats, food intake; format: in vivo, rat; settings: recombinant mouse nesfatin-1 5 pmol
Protocol: As rats, 8 week-old male Zucker fa/fa (Zucker) rats and Zucker +/+(Lean) rats as the control animal were purchased from Nippon Charles River, and were housed in a cycle of 12 hours of the light period from 6 a.m. to 6 p.m. and 12 hours of the dark period from 6 p.m. to 6 a.m. the next morning and fed a powder food (Nippon Clea, CE-2), and kept at 22° C., and throughout the experiment period, a similar condition was continued in housing. After preliminary housing of the purchased rats for over one week, individuals weighing 200-250 g were selected from among 9 to 10 week-old individuals.
The sample used for administration was one in which the recombinant mouse nesfatin-1 prepared in Working Example 16 was dissolved to 5 pmol in 5 μl of PBS, and as the control sample physiological saline (Saline) was used. Five μl of the samples prepared were administered into the third ventricle of each rat for the group of five each of Zucker rats and the Lean rats per group (the Zucker/nesfatin-1 group, the Lean/nesfatin-1 group, the Zucker/Saline group, the Lean/Saline group). […]
After intraventricular administration, the amount of food intake was determined by measuring the amount decreased of the powder food for each rat during 0-1 hour, 1-3 hours and 3-6 hours. […]

Wistar rats = test: Administration of nesfatin-1, nesfatin-2, nesfatin-3, nesfatin-2/3 into the third ventricle, amount of food intake; format: in vivo, rat
Protocol: Samples used for intracerebral administration were PBS alone (vehicle group), or nesfatin-1, nesfatin-2, nesfatin-3 or nesfatin-2/3 prepared in Working Example 10 each dissolved in PBS, and 25 pmol was administered per individual into the third ventricle immediately before the dark period. Rats used were Wistar rats (purchased from Nippon SLC) and were housed as in Working Example 6, and among 8-9 week-old male Wistar rats, those individuals weighing 200-250 g were selected and used (N=5). The technique of intraventricular administration and the measurement of the amount of food intake in rats were carried out in a method similar to those in Working Example 6. In the measurement of the amount of food intake, the reduced amount of food at 1 hour after administration (0-1 hr) and 2 hours after administration (1-3 hrs) was determined as food intake.
In the same condition above, 1, 5 or 25 pmol of nesfatin-1 as a sample was administered per rat individual into the third ventricle immediately before the dark period. In this experiment, the amount of food intake was determined at 1 hour after administration (0-1 hr).
The experimental condition was similar to that in Working Example 12, and 5 pmol of nesfatin-1 was administered into the third ventricle of the rat brain immediately before the start of the dark period, the amount decreased of the food (the amount of food intake) during 1 hour immediately after administration (0-1 hr), during 2 hours from 1 hour after the administration (1-3 hr), during 3 hours from 3 hours after the administration (3-6 hr), and during 6 hours from 6 hours after the administration (6-12 hr) was measured as the amount of food intake. As the control group, the amount of food intake by individuals that received physiological saline alone was measured.
The experimental condition was similar to that in Working Example 12, and for a group that received 5 pmol of nesfatin-1 alone into the third ventricle of the rat brain immediately before the start of the dark period and a group that received 5 pmol of nesfatin-1 and 8 μg of anti-nesfatin-1 antibody (nesfatin-1 IgG), the amount of food intake for 1 hour after administration was measured and compared to that for the control group (physiological saline alone was administered). Also, for a group that received only leptin (Rat leptin: R & D Systems, 598-LP-01M) (1 μg) which is known to have an activity of suppressing food intake by intraventricular administration and a group that received leptin and anti-nesfatin-1 antibody, its effect on food intake was also studied.

rats = test: Continuous administration of nesfatin-1 into the rat ventricle, weight of adipose tissue; format: in vivo; settings: 5 pmol per day, third ventricle, 10 days; vs saline
Protocol: Nesfatin-1 (5 pmol per day) or physiological saline alone (the control group) was administered into the third ventricle of a rat using an osmotic pump for 10 consecutive days (5 and 4 rats were used per group). Intraventricular administration into rats by the osmotic pump was carried out in a manner similar to that in Working Example 13.
After the administration of nesfatin-1 or physiological saline alone for 10 days, each rat was sacrificed, dissected to excise all of the abdominal subcutaneous adipose tissue, the epididymal adipose tissue (these are white adipose tissue) and the retroperitoneal brown adipose tissue, and the weight of them was measured. Also, the gastrocnemial muscles of the bilateral hind legs were harvested and the weight of them was measured. From the weight of the tissues measured, their ratio to the body weight of each individual was determined (tissue weight/body weight, mg/g). For testing of significant difference, analysis of variance was used.

B1: nesfatin-1: 82-residue peptide, amino acid Nos. 25 to 106 of nesfatin (SEQ ID NO: 15), solid-phase synthesis (peptide, listed as Rattus norvegicus)
chain: VPIDVDKTKVHNVEPVESARIEPPDTGLYYDEYLKQVIEVLETDPHFREKLQKADIEEIRSGRLSQELDLVSHKVRTRLDEL
Question: How did the “amount of food intake” value (C57BL/6J mice) turn out when B1 was run?
Answer: significantly reduced

Question: What about the “amount of food intake” value (Zucker +/+ (Lean) rats; 0-1 hour and 1-3 hours, P<0.001 vs Saline) of the same molecule?
Answer: decreased

Question: What about the “amount of food intake” value (Zucker +/+ (Lean) rats; 3-6 hours) of the same molecule?
Answer: No difference

Question: What about the “amount of food intake” value (Wistar rats; 5 pmol into the third ventricle, 0-1 hr, 1-3 hr and 3-6 hr, p<0.01 vs control) of the same molecule?
Answer: Significant decreases in the amount of food intake

Question: What about the “amount of food intake” value (Wistar rats; 5 pmol into the third ventricle, 6-12 hr, p<0.01 vs control) of the same molecule?
Answer: an increase in the amount of food intake

Question: And the “amount of food intake” value (Wistar rats; 5 pmol or 25 pmol intraventricular, 0-1 hr)?
Answer: significant decreased amount of food intake

Question: What about the “amount of food intake” value (Wistar rats; 25 pmol into the third ventricle before dark period, 0-1 hr and 1-3 hr, vs control) of the same molecule?
Answer: marked effect on the suppression of feeding

Question: And the “amount of food intake” value (Wistar rats; 1, 5 or 25 pmol per rat intraventricular, 0-1 hr, vs saline)?
Answer: decreased amount of food intake, with the increased amount of the administered nesfatin-1

Question: And the “ratio of tissue weight to body weight, abdominal subcutaneous adipose tissue” value (rats)?
Answer: significant decreases

Question: And the “ratio of tissue weight to body weight, brown adipose tissue” value (rats)?
Answer: no significant difference

Question: What about the “ratio of tissue weight to body weight, epididymal adipose tissue” value (rats) of the same molecule?
Answer: significant decreases

Question: And the “ratio of tissue weight to body weight, gastrocnemial muscle” value (rats)?
Answer: no significant difference

Question: What about the “ratio of tissue weight to body weight, mesenteric adipose tissue” value (rats) of the same molecule?
Answer: significant decreases

Question: And the “ratio of tissue weight to body weight, retroperitoneal adipose tissue” value (rats)?
Answer: tended to decrease but no significant difference
